Reference: paper PMC7181197
Like-named read-outs stand apart in the source and are kept apart here.

Legend:
GFP-G3BP1(ΔRG) [1] = test: SEC
GFP-G3BP1(ΔRG) [2] = biological target: GFP-G3BP1(ΔRG)

stoichiometry N (GFP-G3BP1(ΔRG) [1]): 2
stoichiometry N (GFP-G3BP1(ΔRG) [2]): 2
Substance: GFP-G3BP1(ΔRG) (domain or fragment)
